Measurements taken from US20200247894A1 (Regeneron, published 2020).

T1: Rat IL2Rγ extracellular domain expressed with a C-terminal myc-myc-hexahistidine tag (rat)
T1 construct: whole entry is the tagged construct; also called rIL-2Rg-MMH; rat IL-2Rg-MMH
T1 chain: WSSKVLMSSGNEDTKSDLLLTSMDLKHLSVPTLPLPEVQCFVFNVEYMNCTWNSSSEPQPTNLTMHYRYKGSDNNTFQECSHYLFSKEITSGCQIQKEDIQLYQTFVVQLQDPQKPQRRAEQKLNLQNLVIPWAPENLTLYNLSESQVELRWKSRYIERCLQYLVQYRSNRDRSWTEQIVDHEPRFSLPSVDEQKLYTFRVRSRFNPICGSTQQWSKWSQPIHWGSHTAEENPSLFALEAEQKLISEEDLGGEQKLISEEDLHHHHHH

T2: Macaca fascicularis IL2Rγ extracellular domain expressed with a C-terminal myc-myc-hexahistidine tag (Macaca fascicularis)
T2 construct: whole entry is the tagged construct; also called mfIL-2Rg-MMH
T2 chain: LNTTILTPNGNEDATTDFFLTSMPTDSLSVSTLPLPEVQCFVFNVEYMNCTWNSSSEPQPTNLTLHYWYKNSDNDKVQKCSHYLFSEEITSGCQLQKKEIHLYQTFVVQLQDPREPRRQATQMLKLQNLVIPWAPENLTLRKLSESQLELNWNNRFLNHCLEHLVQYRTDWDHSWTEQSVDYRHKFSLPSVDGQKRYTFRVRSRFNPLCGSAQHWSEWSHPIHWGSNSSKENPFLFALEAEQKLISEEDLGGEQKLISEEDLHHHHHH

T3: Human IL2Rγ extracellular domain expressed with a C-terminal mouse IgG2a Fc tag (human)
T3 construct: whole entry is the Fc-fused construct; also called hIL-2Rg-mFc
T3 chain: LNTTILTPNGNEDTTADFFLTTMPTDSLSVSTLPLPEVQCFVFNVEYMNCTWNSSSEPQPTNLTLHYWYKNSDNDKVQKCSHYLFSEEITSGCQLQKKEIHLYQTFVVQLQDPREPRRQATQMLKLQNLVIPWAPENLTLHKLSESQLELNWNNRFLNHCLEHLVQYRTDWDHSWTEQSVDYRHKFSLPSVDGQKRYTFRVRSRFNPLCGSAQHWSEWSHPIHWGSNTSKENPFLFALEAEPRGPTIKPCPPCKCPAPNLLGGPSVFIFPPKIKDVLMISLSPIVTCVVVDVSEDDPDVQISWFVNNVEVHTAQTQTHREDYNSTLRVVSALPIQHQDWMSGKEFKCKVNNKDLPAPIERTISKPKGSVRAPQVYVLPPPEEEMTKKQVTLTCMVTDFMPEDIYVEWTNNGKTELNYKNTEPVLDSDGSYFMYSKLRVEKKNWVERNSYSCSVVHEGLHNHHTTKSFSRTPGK

T4: Mouse IL2Rγ extracellular domain expressed with a C-terminal myc-myc-hexahistidine tag (mouse)
T4 construct: whole entry is the tagged construct; also called mIL-2Rg-MMH
T4 chain: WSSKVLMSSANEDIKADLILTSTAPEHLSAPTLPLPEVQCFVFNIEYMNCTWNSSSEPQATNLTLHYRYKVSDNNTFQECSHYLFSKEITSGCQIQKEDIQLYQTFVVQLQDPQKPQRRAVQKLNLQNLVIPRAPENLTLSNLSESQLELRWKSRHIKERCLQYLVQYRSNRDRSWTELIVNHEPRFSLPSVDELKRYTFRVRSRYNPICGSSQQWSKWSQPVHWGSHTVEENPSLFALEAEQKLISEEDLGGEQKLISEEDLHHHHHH

T5: Human IL2Rγ extracellular domain expressed with a C-terminal myc-myc-hexahistidine tag (human)
T5 construct: also called hIL-2Rg-MMH; hIL-2RG-MMH
T5 chain: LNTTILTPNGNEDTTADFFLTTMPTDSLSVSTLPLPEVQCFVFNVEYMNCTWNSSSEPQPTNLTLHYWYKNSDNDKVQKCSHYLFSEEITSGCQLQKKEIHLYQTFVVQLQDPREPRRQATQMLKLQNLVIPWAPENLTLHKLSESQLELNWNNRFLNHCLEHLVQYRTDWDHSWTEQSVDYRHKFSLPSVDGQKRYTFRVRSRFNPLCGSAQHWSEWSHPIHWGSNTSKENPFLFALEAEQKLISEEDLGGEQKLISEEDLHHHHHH

T6: Macaca fascicularis IL2Rγ extracellular domain expressed with a C-terminal myc-myc-hexahistidine tag (Macaca fascicularis)
T6 construct: also called mfIL-2Rg-MMH; mfIL-2RG-MMH
T6 chain: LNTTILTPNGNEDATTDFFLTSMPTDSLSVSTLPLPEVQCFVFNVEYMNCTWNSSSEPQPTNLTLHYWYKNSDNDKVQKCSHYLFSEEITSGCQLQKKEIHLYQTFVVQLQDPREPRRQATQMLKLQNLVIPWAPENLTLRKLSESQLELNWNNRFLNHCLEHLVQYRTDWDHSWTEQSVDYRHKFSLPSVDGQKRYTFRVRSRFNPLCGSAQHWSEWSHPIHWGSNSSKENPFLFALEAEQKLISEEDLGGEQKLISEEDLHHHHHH


Tests used:
[1] = molecular target: T1, Rat IL2Rγ extracellular domain …; assay: SPR Biacore 4000, anti-hFc-captured mAb, 37 C
In short: (§1)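 KD and dissociative half-life come from rate constants obtained by 1:1 binding-model fits of real-time sensorgrams. Antibodies sit on an anti-human Fc capture surface, with HBS-ET (pH 7.4) as running buffer and an 8-10 minute dissociation phase.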

[2] = molecular target: T2, Macaca fascicularis IL2Rγ extracellular …; assay: SPR Biacore 4000, anti-hFc-captured mAb, 37 C
In short: as §1

[3] = molecular target: T3, Human IL2Rγ extracellular domain …; assay: SPR Biacore 4000, anti-hFc-captured mAb, 37 C
In short: as §1

[4] = molecular target: T4, Mouse IL2Rγ extracellular domain …; assay: SPR Biacore 4000, anti-hFc-captured mAb, 37 C
In short: as §1

[5] = molecular target: T3, Human IL2Rγ extracellular domain …; assay: SPR Biacore 4000, anti-hFc-captured mAb, 37 C; no dissociation observed, kd manually fixed at 1.00E-05
[6] = molecular target: T3, Human IL2Rγ extracellular domain …; assay: SPR Biacore 4000, anti-hFc-captured mAb, 37 C; computed with kd fixed at 1.00E-05
Description: (§2) Equilibrium dissociation constants (KD values) for IL-2Rγ binding to purified anti-IL2Rγ monoclonal antibodies were determined using a Biacore 4000 instrument equipped with a real-time surface plasmon resonance biosensor. All binding studies were performed in 10 mM HEPES, 150 mM NaCl, 3 mM EDTA, and 0.05% v/v Surfactant Tween-20, pH 7.4 (HBS-ET) running buffer at 25° C. and 37° C. The Biacore sensor surface was first derivatized by amine coupling with a monoclonal mouse anti-human Fc antibody (GE, # BR-1008-39) to capture anti-IL2Rγ monoclonal antibodies.
(§3) The dissociation of monoclonal antibody bound IL2Rγ reagents were monitored for 8-10 minutes in HBS-ET running buffer. Kinetic association (kₐ) and dissociation (kd) rate constants were determined by fitting the real-time sensorgrams to a 1:1 binding model using Scrubber 2.0c curve fitting software. Binding dissociation equilibrium constants (KD) and dissociative half-lives (t_{1/2}) were calculated from the kinetic rate constants as: […]

[7] = molecular target: T1, Rat IL2Rγ extracellular domain …; assay: SPR Biacore 4000, anti-hFc-captured mAb, 25 C
In short: as §1

[8] = molecular target: T3, Human IL2Rγ extracellular domain …; assay: SPR Biacore 4000, anti-hFc-captured mAb, 25 C
In short: as §1

[9] = molecular target: T4, Mouse IL2Rγ extracellular domain …; assay: SPR Biacore 4000, anti-hFc-captured mAb, 25 C
In short: as §1

[10] = molecular target: T5, Human IL2Rγ extracellular domain …; assay: SPR Biacore 4000, mAb captured by anti-hFc, HBS-ET, 25C; 25 C
Description: as §2, §3

[11] = molecular target: T6, Macaca fascicularis IL2Rγ extracellular …; assay: SPR Biacore 4000, mAb captured by anti-hFc, HBS-ET, 25C
In short: as §1

[12] = molecular target: T6, Macaca fascicularis IL2Rγ extracellular …; assay: SPR Biacore 4000, mAb captured by anti-hFc, 37C, dissociation in PBS-T pH 7.4
In short: (§4)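 Biacore 4000 SPR; anti-IL2Rγ mAbs (human IgG4 Fc) captured on anti-human Fc CM5 surface, IL2Rγ-MMH flowed over. Dissociation followed 6 min in PBS-T pH 7.4 or pH 6.0 at 25° C or 37° C; kd from 1:1 model fit of sensorgrams.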

[13] = molecular target: T6, Macaca fascicularis IL2Rγ extracellular …; assay: SPR Biacore 4000, mAb captured by anti-hFc, 37C, dissociation in PBS-T pH 6.0
In short: as §4

Row | 100 nM Ag Bound [1] [RU] | 100 nM Ag Bound [2] [RU] | Kd [2] [nM] | koff [2] [s⁻¹] | kon [2] [M⁻¹ s⁻¹] | t1/2 [2] [min] | 50 nM Ag Bound [3] [RU] | kon [3] [M⁻¹ s⁻¹] | 100 nM Ag Bound [4] [RU] | koff [5] [s⁻¹] | Kd [6] [nM] | t1/2 [6] [min] | 100 nM Ag Bound [7] [RU] | binding result [7] | 50 nM Ag Bound [8] [RU] | Kd [8] [nM] | koff [8] [s⁻¹] | kon [8] [M⁻¹ s⁻¹] | t1/2 [8] [min] | 100 nM Ag Bound [9] [RU] | Binder | also measured
1 | 3 | 43 | 12.4 | 0.00116 | 93300 | 10 | 14 | 33000 | 0 | ≤ 1e-05 | ≤ 0.303 | ≥ 1160 | 1 | no binding (tested: 100 nM) | 15 | 4.18 | 8.35e-05 | 20000 | 138 | 1 | H4H12874P (antibody, human IgG4 S228P, kappa, V domains shown, fully human anti-IL2Rgamma mAb, human IgG4 Fc) VH: QVQLVESGGGVVQPGRSLRLSCAASGFNFRNFGMHWVRQAPGKGLEWVAGILYDGSSKYYADSVKDRFTISRDNSKNTLFLQMNSLRAEDTAMYYCAKEEDTAMVPFDSWGPGTLVTVSS VL: DIQLTQSPSFLSASVGDRVTITCWASQGISSYLAWYQQKPGKAPTLLIYAASTLQSGVPSRFSGSGSGTEFTLTISSLQPEDFASYYCQQLKSYPLTFGGGTKVEIKR | binding result [9]: no binding (tested: 100 nM)
2 | – | – | – | – | – | – | – | – | – | – | – | – | – | – | – | – | – | – | – | – | H4H12926P2 (antibody, human IgG4 S228P, kappa, V domains shown, anti-IL2Rγ monoclonal antibody expressed with human IgG4 Fc) VH: QVQLQQSGPGLVKPSQTLSLTCAISGDSVSSNIAAWNWIRLSPSRGLEWLGRTFFRSTWFYDYSLSVKGRITINPDTSKNQFSLHLNSVTPEDAAVYYCARTGRRWSLDYWGQGTLVTVSS VL: not shown | Kd [10]: 132 nM; koff [10]: 0.0264 s⁻¹; kon [10]: 200000 M⁻¹ s⁻¹; t1/2 [10]: 0.4 min; 100 nM Ag Bound [11]: 11 RU; Kd [11]: 107 nM; koff [11]: 0.0261 s⁻¹; kon [11]: 244000 M⁻¹ s⁻¹; t1/2 [11]: 0.4 min; 100 nM Ag Bound (RU) [12]: 25 RU; koff [12]: 0.0279 s⁻¹; t1/2 [12]: 0.4 min; 100 nM Ag Bound (RU) [13]: 20 RU; koff [13]: 0.0303 s⁻¹; t1/2 [13]: 0.4 min
3 | – | – | – | – | – | – | – | – | – | – | – | – | – | – | – | – | – | – | – | – | H4H12927P2 (antibody, human IgG4 S228P, kappa, V domains shown, anti-IL2Rγ monoclonal antibody expressed with human IgG4 Fc) VH: EVQLVESGGGVVRPGGSLRLSCATSGFTFDDYGMSWVRQVPGKGLEWVSSVNRNGGTTDYADSVKGRFTISRDNAKRSLFLQMNSLRAEDTALYHCATGELFFDYWGQGTLVTVSS VL: not shown | Kd [10]: 96.5 nM; koff [10]: 0.00555 s⁻¹; kon [10]: 57500 M⁻¹ s⁻¹; t1/2 [10]: 2.1 min; 100 nM Ag Bound [11]: 12 RU; Kd [11]: 238 nM; koff [11]: 0.00686 s⁻¹; kon [11]: 28800 M⁻¹ s⁻¹; t1/2 [11]: 1.7 min; 100 nM Ag Bound (RU) [12]: 27 RU; koff [12]: 0.00596 s⁻¹; t1/2 [12]: 1.9 min; 100 nM Ag Bound (RU) [13]: 22 RU; koff [13]: 0.0129 s⁻¹; t1/2 [13]: 0.9 min
4 | 0 | 63 | 5.51 | 0.00147 | 266000 | 8 | 93 | 537000 | 0 | ≤ 1e-05 | ≤ 0.0186 | ≥ 1160 | 1 | no binding (tested: 100 nM) | 115 | 0.0853 | 3.41e-05 | 399000 | 339 | 2 | H4H12863P (antibody, human IgG4 S228P, kappa, V domains shown, fully human anti-IL2Rgamma mAb, human IgG4 Fc) VH: QVQLVESGGGVVQPGRSLRLSCTASGFTFRSYDMYWVRQAPGKGLEWVSVITYDGNNKYYADSVKGRFTISRDNSKNTLFLQMSSLRPEDTAVYYCAKRGLIWVGESFDYWGQGTLVTVSS VL: DIQMTQSPSTLSASVGDRVTITCRASQSINSWLAWYQQKPGKAPNLLIYKASSLESGVPSRFSGSGSGTEFTLTISSLQPDDFATYYCQQYKSYSWTFGQGTKVEIKR | binding result [9]: no binding (tested: 100 nM)
5 | 2 | 29 | 4.63 | 0.00171 | 369000 | 7 | 39 | 238000 | 0 | ≤ 1e-05 | ≤ 0.042 | ≥ 1160 | 1 | no binding (tested: 100 nM) | 69 | 0.0447 | 1.55e-05 | 347000 | 746 | 1 | H4H12889P (antibody, human IgG4 S228P, kappa, V domains shown, fully human anti-IL2Rgamma mAb, human IgG4 Fc; also called REGN7257) VH: EVQLVESGGGLVQPGGSLRLSCAASGFIFSSYEMHWVRQAPGKGLEWISYISSSGTTIYYADSVKGRFTISRDNAKNSLYLHMNSLRAEDTAVYYCTRARITGTFDVFDIWGQGTMVTVSS VL: DIQMTQSPSSLSASVGDRVTITCRASQSISSYLNWYQQKPGKAPKLLIFAASNLQSGVPSRFSGSRSGTDFTLTISSLQPEDFATYYCQQNYNIPYTFGQGTKLEIKR | binding result [9]: no binding (tested: 100 nM)
